In patent US20260132197A1 (NANJING LEGEND BIOTECH, published 2026):
Numbering of substitutions follows the chain as printed. Names and notes keep the numbering of the source. Blank lines part the entries; values can stand above or below the binder they belong to.

Key:
[1] = target: T1, human CD47 on cells (SHP-77 tumor cells, human red blood cells, CCRF-CEM cells, human CD47 CHO-K1 stable cell … (human, UniProt Q08722 19-323)); assay: flow cytometry on human RBCs;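 also: antibody binding measured by flow cytometry as geometric mean fluorescence intensity over a range of antibody concentrations, with EC50 and maximum taken from a sigmoidal dose-response fit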
T1 construct: whole, on cells; also called RBC

[2] = target: T1, human CD47 on cells (SHP-77 tumor …); assay: flow cytometry on SHP-77 cells
[3] = target: T2, wild type human CD47 (Acro Biosystems, cat. no. CD7-H5227) (human, UniProt Q08722 19-139); assay: SPR, IgG captured, CD47 in flow; exp 4
T2 construct: Bought protein used as SPR analyte; also called Human CD47 wt; wild-type CD47

Human CD47-C33G [4] = target: T3, Human CD47-C33G (human, UniProt Q08722 19-135); assay: SPR, IgG captured, CD47 in flow; exp 4
T3 construct: also called CD47 mutein with C33G mutation

[5] = target: T1, human CD47 on cells (SHP-77 tumor …); assay: cell-based or functional assay
[6] = target: T2, wild type human CD47 (Acro Biosystems, …); assay: SPR, IgG captured, CD47 in flow; exp 1;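 also: biacore T200 SPR using IgG from supernatants of transfected HEK293 cells, rate constants fitted to association and dissociation curves, Kd derived from koff over kon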
Human CD47-C33G [7] = target: T3, Human CD47-C33G; assay: SPR, IgG captured, CD47 in flow; exp 1;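 also: biacore T200 SPR using IgG from supernatants of transfected HEK293 cells, rate constants fitted to association and dissociation curves, Kd derived from koff over kon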
[8] = target: T2, wild type human CD47 (Acro Biosystems, …); assay: SPR, IgG captured, CD47 in flow; exp 2;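 also: IgG from HEK293 cell supernatants tested by SPR on a BIAcore T200, C33G mutein prevents IgV homodimers for monovalent affinity, KD derived from association and dissociation rates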
Human CD47-C33G [9] = target: T3, Human CD47-C33G; assay: SPR, IgG captured, CD47 in flow; exp 2;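 also: IgG from HEK293 cell supernatants tested by SPR on a BIAcore T200, C33G mutein prevents IgV homodimers for monovalent affinity, KD derived from association and dissociation rates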
[10] = target: T2, wild type human CD47 (Acro Biosystems, …); assay: SPR, IgG captured, CD47 in flow; exp 3;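 also: biacore T200 SPR with antibodies taken from supernatants of transfected HEK293 cells, C33G mutein avoiding IgV homodimers for monovalent affinity, Kd derived from association and dissociation rate constants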
Human CD47-C33G [11] = target: T3, Human CD47-C33G; assay: SPR, IgG captured, CD47 in flow; exp 3;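 also: biacore T200 SPR with antibodies taken from supernatants of transfected HEK293 cells, C33G mutein avoiding IgV homodimers for monovalent affinity, Kd derived from association and dissociation rate constants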
[12] = target: T2, wild type human CD47 (Acro Biosystems, …); assay: SPR, IgG captured, CD47 in flow; exp 4; remark: listed apart in the source
Human CD47-C33G [13] = target: T3, Human CD47-C33G; assay: SPR, IgG captured, CD47 in flow; exp 4; remark: listed apart in the source

B3: 108VH5 / 108VL1.M5 (antibody, human IgG4 S228P, kappa, V domains shown)
VH: EVQLVQSGAEVKKPGASVKVSCKASGYSFTHHWIHWVRQAPGQGLEWMGMIDPSDSETRLSQKFKDRVTMTRDTSTSTVYMELSSLRSEDTAVYYCARLGRYYFDYWGQGTLVTVSS
VL: EIVLTQSPATLSLSPGERATLSCRASQSVSSYLAWYQQKPGQAPRLLIYGASNRATGIPARFSGSGSGTDFTLTISSLEPEDFAVYYCGESYGHLYTFGGGTKVEIKR
notes: Full-length IgG4 (S228P), kappa; also called VH5 VL1.M5
- Kd [6]: 0.83 nM
- koff [6]: 0.00065 s⁻¹
- kon [6]: 780000 M⁻¹ s⁻¹
- Kd (Human CD47-C33G [7]): 3.4 nM
- koff (Human CD47-C33G [7]): 0.0012 s⁻¹
- kon (Human CD47-C33G [7]): 340000 M⁻¹ s⁻¹
- Kd [8]: 0.82 nM
- koff [8]: 0.00059 s⁻¹
- kon [8]: 720000 M⁻¹ s⁻¹
- Kd (Human CD47-C33G [9]): 3.9 nM
- koff (Human CD47-C33G [9]): 0.0012 s⁻¹
- kon (Human CD47-C33G [9]): 310000 M⁻¹ s⁻¹

B5: 108VH5.M14 / 108VL1.M5 (antibody, human IgG4 S228P, kappa, V domains shown)
VH: B3 VH with S28T, P53A, S56G, L60Y, S61A, K65Q, D66G
VL: B3 VL
notes: Full-length IgG4 (S228P), kappa; also called VH5.M14 VL1.M5
- Kd [8]: 2.6 nM
- koff [8]: 0.0018 s⁻¹
- kon [8]: 690000 M⁻¹ s⁻¹
- Kd (Human CD47-C33G [9]): 14 nM
- koff (Human CD47-C33G [9]): 0.0037 s⁻¹
- kon (Human CD47-C33G [9]): 260000 M⁻¹ s⁻¹

B6: 108VH5.M12 / 108VL1.M5 (antibody, human IgG4 S228P, kappa, V domains shown)
VH: B3 VH with S28T, I34M, P53A, L60Y, S61A, K65Q, D66G
VL: B3 VL
notes: Full-length IgG4 (S228P), kappa; also called VH5.M12 VL1.M5
- Kd [8]: 2.7 nM
- koff [8]: 0.002 s⁻¹
- kon [8]: 730000 M⁻¹ s⁻¹
- Kd (Human CD47-C33G [9]): 15 nM
- koff (Human CD47-C33G [9]): 0.0041 s⁻¹
- kon (Human CD47-C33G [9]): 280000 M⁻¹ s⁻¹

Results, then the binder that gave them:

- EC50 [1]: 3.4 nM
- Fitted Maximal MFI [1]: 19200 MFI
- EC50 [2]: 7.9 nM
- Fitted Maximal MFI [2]: 34500 MFI
- Kd [3]: 5.8 nM
- koff [3]: 0.0032 s⁻¹
- kon [3]: 560000 M⁻¹ s⁻¹
- Kd (Human CD47-C33G [4]): 45 nM
- koff (Human CD47-C33G [4]): 0.0093 s⁻¹
- kon (Human CD47-C33G [4]): 210000 M⁻¹ s⁻¹
- CCRF-CEM phagocytosis EC50 [5]: 0.18 nM
- CCRF-CEM phagocytosis, Phagocytosis (%) [5]: 56.4%
B1: 108VH10.Mo / 108VL10.Me (antibody, V domains shown)
VH: EVQLVESGGGLVQPGGSLRLSCAASGFTFSHHWIHWVRQAPGKGLEWVAMIDASDSETRLSDSFKGRFTISADTSKNTAYLQMNSLRAEDTAVYYCSRLGRYYFDYWGQGTLVTVSS
VL: DIQMTQSPSSLSASVGDRVTITCRASQSISSYLNWYQQKPGKAPKLLIYGASSRYSGVPSRFSGSRSGTDFTLTISSLQPEDFATYYCGESYGHLYTFGQGTKVEIK
notes: 4D5-framework series; also called VH10.Mo VL10.Me

- EC50 [1]: 23.6 nM
- Fitted Maximal MFI [1]: 16100 MFI
- EC50 [2]: 27.5 nM
- Fitted Maximal MFI [2]: 24100 MFI
- Kd [3]: 15 nM
- koff [3]: 0.0039 s⁻¹
- kon [3]: 250000 M⁻¹ s⁻¹
- Kd (Human CD47-C33G [4]): 170 nM
- koff (Human CD47-C33G [4]): 0.012 s⁻¹
- kon (Human CD47-C33G [4]): 72000 M⁻¹ s⁻¹
- CCRF-CEM phagocytosis EC50 [5]: 1.2 nM
- CCRF-CEM phagocytosis, Phagocytosis (%) [5]: 47.1%
B2: 108VH10.Mp / 108VL10.Me (antibody, V domains shown)
VH: B1 VH with S61V
VL: B1 VL
notes: 4D5-framework series; constant regions not restated for this series; also called VH10.Mp VL10.Me

- Kd [10]: 12 nM
- koff [10]: 0.002 s⁻¹
- kon [10]: 170000 M⁻¹ s⁻¹
- Kd (Human CD47-C33G [11]): 1200 nM
- koff (Human CD47-C33G [11]): 0.087 s⁻¹
- kon (Human CD47-C33G [11]): 75000 M⁻¹ s⁻¹
B4: 108VH5.M18 / 108VL1.M5 (antibody, human IgG4 S228P, kappa, V domains shown)
VH: B3 VH with S28T, I34M, P53A, D55E, L60Y, S61A, K65Q, D66G
VL: B3 VL
notes: Full-length IgG4 (S228P), kappa; also called VH5.M18 VL1.M5

- EC50 [1]: 9.2 nM
- Fitted Maximal MFI [1]: 40800 MFI
- Kd [12]: 6.5 nM
- koff [12]: 0.0032 s⁻¹
- kon [12]: 490000 M⁻¹ s⁻¹
- Kd (Human CD47-C33G [13]): 51 nM
- koff (Human CD47-C33G [13]): 0.008 s⁻¹
- kon (Human CD47-C33G [13]): 160000 M⁻¹ s⁻¹
- EC50 [2]: 11.9 nM
- Fitted Maximal MFI [2]: 37400 MFI
- CCRF-CEM phagocytosis EC50 [5]: 0.32 nM
- CCRF-CEM phagocytosis, Phagocytosis (%) [5]: 51.9%
B7: 108VH5.M21 / 108VL1.M5 (antibody, human IgG4 S228P, kappa, V domains shown)
VH: B3 VH with S28T, I34M, P53A, S56F, L60Y, S61A, K65Q, D66G
VL: B3 VL
notes: Full-length IgG4 (S228P), kappa; also called VH5.M21 VL1.M5
